Laboratory results from the supplement of paper PMC12764529.
± gives the half width of the 95% confidence interval.

Assays:
[1] = folding stability dG unfold (combined trypsin and chymotrypsin); higher = more stable
How it was run: (§1)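 How resistant each design was to proteolysis was captured as K50, inferred by Bayesian fitting of sequencing counts. Unfolding free energy was then derived relative to a sequence-predicted unfolded-state K50 and a shared folded-state K50, per protease or combined. Digestion used trypsin and chymotrypsin at 11 threefold-diluted concentrations plus a no-protease condition, on mini-proteins under 80 residues without cysteine in a PA-tagged cDNA display construct. Designs were kept only when AlphaFold2 dimer inter-PAE was above 15.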

[2] = folding stability dG unfold from chymotrypsin proteolysis; higher = more stable
How it was run: as §1

[3] = folding stability dG unfold from trypsin proteolysis; higher = more stable
How it was run: as §1

Sequence	folding stability dG unfold [1] [kcal/mol]	folding stability dG unfold [2] [kcal/mol]	folding stability dG unfold [3] [kcal/mol]
SAGGSAGGSAGGSSSSSITTEERPVDEDSVEKTFKFPDYYVVETLDPRTGRTSVSFIPVSAGGSAGGSAGGS [r4_99_JUSTAS]	0.533 ± 0.072	0.249 ± 0.041	0.756 ± 0.021
SAKGTLELTFPTTKVTVEVEKVDPVNNKVYARAVFPNGFVVDAVFDPKTGKVYVEVKEVKPTKDGGYSLSAG [r14_466_TrMRF]	1.44 ± 0.15	1.46 ± 0.11	1.24 ± 0.046
SAGGSAVIEFELELRTRPDGSVEEEEIIAEARELIEAIPEAENAEILEIRREAFPDGTVRYHVRVRVPSAGG [r13_462_TrMRF]	3.19 ± 0.072	3.01 ± 0.036	3.46 ± 0.072
SMKYRITLTITKGDEDIVVEIETESEEEAKEKFKKAISPELLKALPEDAKVEITVEPEPLVIPEPGVPLPSA [r9_111_JUSTAS]	0.995 ± 0.062	1.22 ± 0.12	0.465 ± 0.038
SAGGSAGGSAGGSMKIVEVELIEYDEETKEFVYVFRVRLEDGSERLIVITPDGEMRVVPSAGGSAGGSAGGS [r4_35_TrROS_Hall]	3.26 ± 0.055	3.481 ± 0.031	2.61 ± 0.064
SMKITIVNKNGEKKEIEVTAKDGKKYKITVFKDKELVIKVEETTPDGKKKPVKVIKAKSLEEALEALKKASA [r9_942_TrROS_Hall]	2.38 ± 0.32	2.83 ± 0.057	2.17 ± 0.14
SAGGSAEKPVRTLEITVTVPPGQPTPEELARALAEELGVEVTRVEVVRVERNEDGELTVTVRVEVKSAGGSA [r15_654_TrROS_Hall]	2.99 ± 0.14	2.5 ± 0.14	3.2 ± 0.21
SAGGSAGGSAGGAPAAVESVEPLKIGDKEYLRITFPDGTTVTLPSSTPLSPDGQKLKPVPSAGGSAGGSAGG [r7_931_JUSTAS]	0.628 ± 0.033	0.503 ± 0.031	0.65 ± 0.042
SAGGSAGGSAGGKTLRIKVEETEYVVLFPNTGRLLVIPPGYEAEIELDDAPDVLILGRPPSAGGSAGGSAGG [r11_939_TrMRF]	1.34 ± 0.13	1.79 ± 0.16	0.123 ± 0.18
SAGGMTLTLIVPSKEEAERLAEALRALLPPGAKLEITVEEVTLKEDLPPDLPEVKEKKYLVVTIRLDSAGGS [r16_795_TrROS_Hall]	3.34 ± 0.1	3.5 ± 0.08	3.03 ± 0.14
SAGGSAGGSAGMKVELSVAPDPATGEPVLLFHFEDFTLALNPNTGAIGVYLKDEVELFELSAGGSAGGSAGG [r17_544_TrMRF]	2.03 ± 0.14	1.98 ± 0.1	2 ± 0.13
SAGGSAGGSAGGSDDPDGKPKPQIPPIKVEPIPIKDPNGWSIEIYYFPWNGMLIISFYNSAGGSAGGSAGGS [r4_305_TrROS]	4.26 ± 0.2	4.34 ± 0.12	3.3 ± 0.22
SAGGSAGGSMIKIKVKSKEDVEALIKELEKAGFKVKKVEEVDGKVYFTLENGEKIEIEVVPPESAGGSAGGS [r20_93_TrROS_Hall]	5.05 ± 0.34	4.94 ± 0.12	4.24 ± 0.48
SANPALYQWVTTDVVLPFETEEEALAAVEALAAARAAATGATVTVSVEVERLPDGLRVRVPVTTLVPLLSAG [r14_626_JUSTAS]	1.05 ± 0.046	0.984 ± 0.099	1.05 ± 0.012
SAGKPPPVKIEVNYRRTPDNSYRAEVQIRLPDGKPLFEVTYPFDNPDDPEARERFVRKARNLAKELANSAGG [r19_13_TrROS]	2.14 ± 0.5	1.8 ± 0.19	1.9 ± 0.14
SAGGSAGGSAGGEKPKYIIIPATLTVPVLTKEGEGEKVEYKEITLLLIINPDTNEITVSSAGGSAGGSAGGS [r10_533_TrMRF]	2.86 ± 0.22	3.07 ± 0.07	2.7 ± 0.15
SMVIEPKPDGTVTVTLPSSLPDLPREEVEAIVREALPPGASLGDSITVSRDPETGEVTVTAPVKFPPELASA [r9_1011_JUSTAS]	1.03 ± 0.084	0.544 ± 0.025	1.55 ± 0.076
SMGMTPEEYILELVREALAADPDAAVTIDHDDIVRNTPNPISKEEIEKLAKEKTGVEDLTVTETPPDVPPSA [r9_738_JUSTAS]	0.265 ± 0.061	0.252 ± 0.054	0.18 ± 0.023
SAGGSMEIVKKETFTLEDGRKIEVVYDKETNKYVVKIYNKETGEEVEITVKSKEEAEEALKKLLEESAGGSA [r2_70_TrROS_Hall]	3.43 ± 0.37	3.76 ± 0.072	1.88 ± 0.13
SAGGSAGGSAGGEKTIRITVKNENGETLEIEVSEEDAEELLKALEDAGISLEEITRIEPVSAGGSAGGSAGG [r7_745_TrROS_Hall]	1.8 ± 0.15	1.62 ± 0.098	1.92 ± 0.12
SAGGSAELVSVDVELEGRYLRVRARFRLPDGREVEVEVRFSLPGVPPAPPVFPYRDPETGELRLGLSAGGSA [r15_335_TrMRF]	3.57 ± 0.14	3.614 ± 0.023	3.27 ± 0.056

Sequence	folding stability dG unfold [1] [kcal/mol]	folding stability dG unfold [2] [kcal/mol]	folding stability dG unfold [3] [kcal/mol]
SAGGSAGGSAPWLTIIFRMDTPEMAKEIANWLREDGLDIEVETEPDPNDGRFWVMITIQLPNSAGGSAGGSA [r18_455_TrROS]	3.96 ± 0.17	4.24 ± 0.07	3.57 ± 0.16
SAGGSAMIKIKLPNGEVAEIELSPDGKKVLIRYKDGSIEEIEIKDGKITKIKPLPNAPPNAEIVEVSAGGSA [r15_709_TrROS_Hall]	2.47 ± 0.077	2.72 ± 0.041	1.92 ± 0.029
SAGGSAGGSPGPGTEVEVRYRHPATGRWYPGVAVFTPDGSIRVYFPALGTTVTVPPHTVEPVPSAGGSAGGS [r12_726_TrMRF]	1.93 ± 0.053	1.93 ± 0.031	1.98 ± 0.056
SAGGSAGGSMKITKTEEGVYLVEFTLPDGTPLVIPFPTDDPFLTEEQAVEIAKPIAAAFAAAGSAGGSAGGS [r12_642_TrMRF]	1.22 ± 0.044	1.35 ± 0.038	0.84 ± 0.016
SMPVTITITLHKDPNSDVIPVRLEMTDSAGNPIGEREIDYTTTEEEARERAVALAEEIAAATGYTIEFGESA [r9_31_JUSTAS]	0.8 ± 0.11	0.266 ± 0.22	1.27 ± 0.069
SAGGMTKEKALELAEEIAREFAKKHGIEKLELKVEDVVEKEDEVIVRLKIVYPDKVYELDLVVPKDYVSAGG [r13_611_TrMRF]	3.7 ± 0.19	4.06 ± 0.13	2.69 ± 0.11
SNEPPVIEIKFRIDEVQPMNGQPMIMFEITEIEDAPPEIQDLLKNGYYIMIHMPPGEPLKEGEEFEIHIFSA [r9_557_TrROS]	2.01 ± 0.3	2.75 ± 0.12	1.34 ± 0.09
SAGGSAGGSAGGGMMKTVLISLEGVDPSGGPSRRVEIELTLSPEEIPKVIEELAKAGRVLSAGGSAGGSAGG [r7_618_JUSTAS]	0.232 ± 0.099	-0.0881 ± 0.1	0.533 ± 0.058
SMEPGELRLRAKVPLRIVNPDGEEIADIEIEVRSIEELEEAIAEAARELAERLGRPDAPVVIDDIEVEDESA [r9_376_TrMRF]	0.482 ± 0.23	0.643 ± 0.14	0.239 ± 0.19
SAGGSAGGSAGGKKVKITVVLEFDGVLLVAEAEIEFDENGKIVEIKVKVELFPAPEEGEESAGGSAGGSAGG [r7_135_TrROS_Hall]	2.96 ± 0.48	2.39 ± 0.18	3.21 ± 0.36
SAGGSAGGSAGGKVSEIDLSGDKVVVTVKGPGGSVVREVHPDKTLEQVLDELLENPELVDSAGGSAGGSAGG [r7_373_TrMRF]	1.13 ± 0.057	1.55 ± 0.05	-0.176 ± 0.1
SAGGSAGGSAGGKIYKKKNGTYKIIIYDKKTKKVYEIEIPVSKEDKPKILKEAKELAKKSAGGSAGGSAGGS [r10_379_TrROS_Hall]	1.17 ± 0.084	1.49 ± 0.096	0.609 ± 0.11
SAGGSAMKGLSVERVELDGEEVVRIEIETPAGGSETLELSLRDPEAVEAYLAALKAAGVIAEILPESAGGSA [r15_575_JUSTAS]	1.11 ± 0.14	0.713 ± 0.11	1.24 ± 0.027
SAGGSSSVGVDSSDPEKTKEAILKAYGTDAEPVFTTDPATGRLTITVPETGDVHTVTAGTRTETAASAGGSA [r2_205_JUSTAS]	0.801 ± 0.085	0.224 ± 0.068	1.27 ± 0.042
SAGGMYMVQIEVRSPDKEIPFMIMVPEDDPKKIVDDIKEEIAEEAGADNVNIKIEVYRMDENGEWEWISAGG [r13_877_TrROS]	1.02 ± 0.11	1.01 ± 0.13	0.866 ± 0.088
SAGGSAPEVRLSASREGNTVTVLALKPVGDRTYLVVTTYEVRELGEGFLVLSSSEVIPLPDGEGFFSAGGSA [r15_725_TrMRF]	2.36 ± 0.032	2.66 ± 0.044	1.626 ± 0.015
SAGGSAGGSGPKPRLIKLTFLLEPGKVEEFAQALRDAGFEIVSVEVEPLPDGGERATVTVRIDSAGGSAGGS [r12_905_TrMRF]	3.56 ± 0.062	3.82 ± 0.07	2.81 ± 0.093
SAGGSAGGSAGGSKDERTLTLRLRVTTPIYGTDADGNPLEPIEVTKEYELTVTVPADLLSAGGSAGGSAGGS [r4_425_TrMRF]	2.1 ± 0.16	2.69 ± 0.099	1.18 ± 0.082
SMTFVLPYPKEGKTITVTYPDLESAVSSSGVATFQDPALLAQVIAALPSSVIVKEIKKNPDGTYTLTVAASA [r9_997_JUSTAS]	0.483 ± 0.1	-0.066 ± 0.24	0.773 ± 0.043
SAAAENGEITISVEVELDPETNTLTIKRVEITVNGKLIATATLTITLPPPPPEPEETVYVHPDDPEALKSAG [r14_571_TrROS_Hall]	1.85 ± 0.093	1.97 ± 0.038	1.54 ± 0.023
SAGGGMSTTTETTIRIYVKDPQGNPVFVAELTVTVTTSPSGEVTIHLPPEFLKALPPNYTIAKIEVTSAGGS [r16_295_JUSTAS]	4.06 ± 0.083	4.13 ± 0.086	3.94 ± 0.21
